{"source": "patent US20180016614", "key": {"[1]": {"test_system": "N-terminally 6-His-tagged T7 RNA polymerase (wild type) expressed by C321.ΔA.759.T7"}, "[2]": {"test_system": "His-tagged double mutant T7 RNA polymerase K183G, K190L expressed by C321.ΔA.759.T7.D"}}}
{"substance": "Outer membrane protease VII (OmpT)", "values": [{"measurement": "proteolytic cleavage of T7RNAP during lysate preparation (α-His western blot)", "setting": "[1]", "result": "the T7RNAP produced by the strain is cleaved near the N-terminus to yield a ˜21 kDa fragment"}, {"measurement": "proteolytic cleavage of T7RNAP in lysate of the ompT knockout strain (α-His western blot)", "setting": "[1]", "result": "a Western blot revealed that in the absence of OmpT the T7RNAP is no longer cleaved"}, {"measurement": "proteolytic cleavage of double mutant T7RNAP in lysate (α-His western blot)", "setting": "[2]", "result": "the double mutant T7RNAP expressed by C321.ΔA.759.T7.D is not cleaved despite the presence of active OmpT in the cellular lysate"}]}
